Consider 2 substances from article PMC7589864.

The target in this test is F-actin of thin filaments in ghost fibers from rabbit psoas muscle (rabbit (endogenous in psoas muscle fibers)) (UniProt P68135). In words: polarized microfluorimetry of ghost muscle fibers; 5-IAF-labelled Tpm incorporated into ghost fibers (2 mg/mL, 2-3 h); sum of the four polarized fluorescence intensities of Tpm-AF, in the presence of S1.

Sequence of recombinant control (wild-type) human tropomyosin Tpm2.2 (natural protein) (P07951 whole entry): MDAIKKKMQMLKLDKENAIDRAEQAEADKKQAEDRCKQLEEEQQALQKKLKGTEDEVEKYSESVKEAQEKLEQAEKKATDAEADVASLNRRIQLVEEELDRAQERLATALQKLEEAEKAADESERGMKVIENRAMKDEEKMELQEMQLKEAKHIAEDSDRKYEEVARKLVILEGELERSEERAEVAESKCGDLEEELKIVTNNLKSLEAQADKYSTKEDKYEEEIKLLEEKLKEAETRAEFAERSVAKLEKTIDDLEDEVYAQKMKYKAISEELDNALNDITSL

As for “recombinant mutant human tropomyosin Tpm2.2 with the Gln147Pro substitution (natural protein)”, the sum of fluorescence intensities for Tpm-AF (Isum) in ghost fibers was 978.
As for “recombinant control (wild-type) human tropomyosin Tpm2.2 (natural protein)”, the sum of fluorescence intensities for Tpm-AF (Isum) in ghost fibers was 1030.
